The target in the assay is HA-tagged full-size GAM (GAM/ZFp/ZNF512B) (human) (UniProt Q96KM6). Kind of assay: co-IP.
Sequence of UniProt Q96KM6 (Q96KM6 whole entry): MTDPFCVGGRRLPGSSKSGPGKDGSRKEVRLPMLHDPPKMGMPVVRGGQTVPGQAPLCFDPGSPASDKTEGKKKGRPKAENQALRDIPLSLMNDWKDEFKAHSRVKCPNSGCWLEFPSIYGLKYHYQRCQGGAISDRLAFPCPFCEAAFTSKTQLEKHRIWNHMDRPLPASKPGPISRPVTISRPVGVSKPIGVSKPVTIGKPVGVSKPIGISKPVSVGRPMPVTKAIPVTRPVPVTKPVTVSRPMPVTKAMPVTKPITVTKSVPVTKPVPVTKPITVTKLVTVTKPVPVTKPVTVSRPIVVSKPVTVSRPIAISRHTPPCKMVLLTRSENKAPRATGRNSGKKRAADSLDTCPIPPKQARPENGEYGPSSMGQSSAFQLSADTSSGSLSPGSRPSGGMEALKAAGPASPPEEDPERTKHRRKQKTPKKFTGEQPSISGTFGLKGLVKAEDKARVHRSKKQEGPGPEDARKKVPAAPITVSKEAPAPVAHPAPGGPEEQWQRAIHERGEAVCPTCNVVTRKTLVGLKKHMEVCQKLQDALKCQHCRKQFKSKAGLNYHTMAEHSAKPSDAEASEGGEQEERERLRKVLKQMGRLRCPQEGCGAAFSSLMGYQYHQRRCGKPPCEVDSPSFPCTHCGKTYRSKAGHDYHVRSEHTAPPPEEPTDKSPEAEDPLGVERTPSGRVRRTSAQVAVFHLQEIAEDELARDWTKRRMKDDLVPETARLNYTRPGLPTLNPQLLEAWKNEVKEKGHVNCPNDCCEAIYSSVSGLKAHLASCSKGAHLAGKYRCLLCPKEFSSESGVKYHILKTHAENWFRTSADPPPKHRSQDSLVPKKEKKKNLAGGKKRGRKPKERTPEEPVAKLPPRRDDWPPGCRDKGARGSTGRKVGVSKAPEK

B1: endogenous Drosha (enzyme)
chain: MMQGNTCHRMSFHPGRGCPRGRGGHGARPSAPSFRPQNLRLLHPQQPPVQYQYEPPSAPSTTFSNSPAPNFLPPRPDFVPFPPPMPPSAQGPLPPCPIRPPFPNHQMRHPFPVPPCFPPMPPPMPCPNNPPVPGAPPGQGTFPFMMPPPSMPHPPPPPVMPQQVNYQYPPGYSHHNFPPPSFNSFQNNPSSFLPSANNSSSPHFRHLPPYPLPKAPSERRSPERLKHYDDHRHRDHSHGRGERHRSLDRRERGRSPDRRRQDSRYRSDYDRGRTPSRHRSYERSRERERERHRHRDNRRSPSLERSYKKEYKRSGRSYGLSVVPEPAGCTPELPGEIIKNTDSWAPPLEIVNHRSPSREKKRARWEEEKDRWSDNQSSGKDKNYTSIKEKEPEETMPDKNEEEEEELLKPVWIRCTHSENYYSSDPMDQVGDSTVVGTSRLRDLYDKFEEELGSRQEKAKAARPPWEPPKTKLDEDLESSSESECESDEDSTCSSSSDSEVFDVIAEIKRKKAHPDRLHDELWYNDPGQMNDGPLCKCSAKARRTGIRHSIYPGEEAIKPCRPMTNNAGRLFHYRITVSPPTNFLTDRPTVIEYDDHEYIFEGFSMFAHAPLTNIPLCKVIRFNIDYTIHFIEEMMPENFCVKGLELFSLFLFRDILELYDWNLKGPLFEDSPPCCPRFHFMPRFVRFLPDGGKEVLSMHQILLYLLRCSKALVPEEEIANMLQWEELEWQKYAEECKGMIVTNPGTKPSSVRIDQLDREQFNPDVITFPIIVHFGIRPAQLSYAGDPQYQKLWKSYVKLRHLLANSPKVKQTDKQKLAQREEALQKIRQKNTMRREVTVELSSQGFWKTGIRSDVCQHAMMLPVLTHHIRYHQCLMHLDKLIGYTFQDRCLLQLAMTHPSHHLNFGMNPDHARNSLSNCGIRQPKYGDRKVHHMHMRKKGINTLINIMSRLGQDDPTPSRINHNERLEFLGDAVVEFLTSVHLYYLFPSLEEGGLATYRTAIVQNQHLAMLAKKLELDRFMLYAHGPDLCRESDLRHAMANCFEALIGAVYLEGSLEEAKQLFGRLLFNDPDLREVWLNYPLHPLQLQEPNTDRQLIETSPVLQKLTEFEEAIGVIFTHVRLLARAFTLRTVGFNHLTLGHNQRMEFLGDSIMQLVATEYLFIHFPDHHEGHLTLLRSSLVNNRTQAKVAEELGMQEYAITNDKTKRPVALRTKTLADLLESFIAALYIDKDLEYVHTFMNVCFFPRLKEFILNQDWNDPKSQLQQCCLTLRTEGKEPDIPLYKTLQTVGPSHARTYTVAVYFKGERIGCGKGPSIQQAEMGAAMDALEKYNFPQMAHQKRFIERKYRQELKEMRWEREHQEREPDETEDIKK
For the molecule B1, the reduction of co-precipitated Drosha after RNase A pre-treatment of the extract worked out at 50%.

The record behind these values is article PMC2995059.
